Values of other authors in paper PMC10564622.
Where two headings read alike, the source gives them in different places.

Experiments:
[1] = target: CUL3 NTD with N-terminal deletion (Homo sapiens) (UniProt Q13618)
CUL3 NTD (Homo sapiens) [2] = target: CUL3 NTD (Homo sapiens) (UniProt Q13618)
CUL3 NTD (Homo sapiens) [3] = target: CUL3 NTD (Homo sapiens) (UniProt Q13618); remark: listed apart in the source

Sequence of CUL3 NTD (Homo sapiens) (Q13618 20-381): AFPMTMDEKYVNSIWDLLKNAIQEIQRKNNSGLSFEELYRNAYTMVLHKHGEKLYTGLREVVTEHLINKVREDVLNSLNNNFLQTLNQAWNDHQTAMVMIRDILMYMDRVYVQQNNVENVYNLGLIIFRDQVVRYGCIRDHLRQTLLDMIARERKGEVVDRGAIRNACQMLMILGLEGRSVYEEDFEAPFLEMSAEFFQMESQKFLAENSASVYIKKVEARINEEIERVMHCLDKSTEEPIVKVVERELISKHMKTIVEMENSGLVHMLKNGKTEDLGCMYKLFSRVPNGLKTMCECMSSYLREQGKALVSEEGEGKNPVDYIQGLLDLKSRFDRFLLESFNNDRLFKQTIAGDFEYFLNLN
Sequence of KLHL3 BTB-BACK (Q9UH77 24-276): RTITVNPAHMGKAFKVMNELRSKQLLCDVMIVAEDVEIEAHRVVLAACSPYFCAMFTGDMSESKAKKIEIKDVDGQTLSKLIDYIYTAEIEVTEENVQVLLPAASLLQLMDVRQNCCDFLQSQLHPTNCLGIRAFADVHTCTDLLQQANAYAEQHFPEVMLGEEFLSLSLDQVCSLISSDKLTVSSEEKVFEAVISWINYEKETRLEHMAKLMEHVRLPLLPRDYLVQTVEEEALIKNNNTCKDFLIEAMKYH
Sequence of CUL3 NTD with N-terminal deletion (Homo sapiens) (Q13618 20-381, stated change not applied): as the sequence (Q13618 20-381) above
Sequence of SPOP BTB-3-box (O43791 177-319): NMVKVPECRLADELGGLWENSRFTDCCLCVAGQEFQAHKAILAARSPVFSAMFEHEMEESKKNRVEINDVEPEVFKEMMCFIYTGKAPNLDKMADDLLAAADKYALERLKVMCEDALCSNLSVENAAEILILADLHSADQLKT
Sequence of SPOP BTB (O43791 170-300): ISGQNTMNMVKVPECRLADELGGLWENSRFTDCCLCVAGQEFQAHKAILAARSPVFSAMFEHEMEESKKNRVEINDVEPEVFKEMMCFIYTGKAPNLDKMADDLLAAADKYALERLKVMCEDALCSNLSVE

Substance: KLHL3 BTB-BACK (from UniProt Q9UH77)
- Kd [1]: 110 nM

Substance: SPOP BTB (from UniProt O43791)
- Kd (CUL3 NTD (Homo sapiens) [2]): 1000 nM

Substance: SPOP BTB-3-box (from UniProt O43791)
- Kd (CUL3 NTD (Homo sapiens) [3]): 17 nM
